# In patent US20210395777:
# B1: V-CATH protease (Viral Cathepsin), encoded by the baculovirus v-cath gene of the BEV (protein)
# chain: PLEFDWRRLNKVTSVKNQGMCGACWAFATLASLESQFAIKHNQLINLSEQQMIDCDFVDAGCNGGLLHTAFEAIIKMGGVQLESDYPYEADNNNCRMNSNKFLVQVKDCYRYITVYEEKLKDLLRLVGPIPMAIDAADIVNYKQGIIKYCFNSGLNHAVLLVGYGVENNIPYWTFKNTWGTDWGEDGFFRVQQNINACGMRNELASTAVIY
# Target: AAV capsid expressed by the standard BEV1 infection and the v-cath deleted BEV2 infection in Sf9 cells
protein,measurement,value
B1,degradation products of the AAV capsid on Western immunoblot (BEV1 against v-cath deleted BEV2),Deletion of v-cath eliminated the degradation products.
